Where only a bound is given, the exact number is not on record here.

For orientation: EC50 means the concentration needed to bring the measured effect to its halfway point. Low readings indicate a more potent agent, high ones a less potent agent. As a reminder, the Kd is the concentration at which binding is half-saturated. A low value points to tighter binding. Broadly, the koff is a measure of how fast the partners let go of each other. As usually defined, the kon is a measure of how fast the partners come together. Lower therefore signals slower complex formation.

The target in assay [1] is SARS-CoV-2 (BF.7) Spike RBD (SARS-CoV-2 BF.7 strain). Description: ELISA on plate-coated RBD (1 µg/mL), HRP anti-human Fc detection, OD450. A general note: ELISA stands for enzyme-linked immunosorbent assay.
The target is the same in assay [2]. Description: SPR, Biacore 8K; antibody captured on Protein A chip, RBD as analyte.
Assay [3] has as its target SARS-CoV-2 (BA.5) Spike RBD (SARS-CoV-2 BA.5 strain). The description is as above.
Assay [4] addresses S protein of the SARS-CoV-2 BA.2.75 strain on pseudo-virus (SARS-CoV-2 BA.2.75 strain). The assay is described as follows: cell-based or functional assay.
The target of assay [5] is S protein of the SARS-CoV-2 BF.7 strain on pseudo-virus (SARS-CoV-2 BF.7 strain). Description: cell-based or functional assay.
Assay [6] has as its target S protein of the SARS-CoV-2 XBB strain on pseudo-virus (SARS-CoV-2 XBB strain). Description: cell-based or functional assay.
The target of assay [7] is S protein of the SARS-CoV-2 Delta strain on pseudo-virus (SARS-CoV-2 Delta strain). Description: cell-based or functional assay.
The target in assay [8] is S protein of the SARS-CoV-2 BQ.1 strain on pseudo-virus (SARS-CoV-2 BQ.1 strain). Description: cell-based or functional assay.
Assay [9] concerns the target S protein of the SARS-CoV-2 BQ.1.1 strain on pseudo-virus (SARS-CoV-2 BQ.1.1 strain). The assay is described as follows: cell-based or functional assay.
The target in assay [10] is S protein of the SARS-CoV-2 BA.4/5 strains on pseudo-virus (SARS-CoV-2 BA.4/5 strain). The assay is described as follows: cell-based or functional assay.
The target of assay [11] is S protein of the SARS-CoV-2 XBB.1.5 strain on pseudo-virus (SARS-CoV-2 XBB.1.5 strain). The assay is described as follows: cell-based or functional assay.
Assay [12] deals with S protein of the SARS-CoV-2 BA.1 strain on pseudo-virus (SARS-CoV-2 BA.1 strain). The assay is described as follows: cell-based or functional assay.

Sequence of LY-CoV1404 (antibody) (VH): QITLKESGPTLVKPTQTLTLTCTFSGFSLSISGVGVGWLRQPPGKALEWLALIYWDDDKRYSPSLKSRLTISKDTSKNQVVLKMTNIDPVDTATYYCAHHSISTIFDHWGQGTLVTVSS
Sequence of LY-CoV1404 (antibody) (VL): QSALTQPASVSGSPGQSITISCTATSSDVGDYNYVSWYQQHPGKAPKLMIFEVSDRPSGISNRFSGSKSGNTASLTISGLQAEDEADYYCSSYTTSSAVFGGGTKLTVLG

In assay [1], LY-CoV1404 (antibody) came in with an EC50 of 0.111 nM. Besides, the Kd in assay [2] turned out to be 0.162 nM; in assay [3], 0.184 nM. The figures for the dissociation rate constant (koff) in [2] and in [3] were 0.000148 s⁻¹ and 0.000264 s⁻¹, respectively. Also, the kon in assay [2] was determined as 910000 M⁻¹ s⁻¹; in [3] it was 1.44e+06 M⁻¹ s⁻¹. Also, the Neutralization activity (IC50) against pseudo-virus in assay [4] is 25.1 ng/mL; in assay [5], 2.14 ng/mL; in [6] it was more than 2000 ng/mL; in [7], 3.05 ng/mL; in [8], more than 2000 ng/mL; in assay [9], more than 2000 ng/mL. Besides, the Neutralization activity (IC50) against pseudo-virus in assay [10] was 1.22 ng/mL; in assay [11], more than 2000 ng/mL; in assay [12], 1.44 ng/mL.
